From US20130109581A1, “POSITIVELY CHARGED SPECIES AS BINDING REAGENTS IN THE SEPARATION OF PROTEIN AGGREGATES FROM MONOMERS” (priority 2009, published 2013)
Where “and” joins values, the source holds several entries; their conditions need not be identical. Identical values can stand only once. Like-named read-outs stand apart in the source and are kept apart here.

How the values were obtained:
[1] = molecular target: Abeta 1-42 globulomer (UniProt P05067); test: MPA, 0.5 over 0 ng/mL globulomer in CSF, Pluronic F-127 wash
[2] = molecular target: Abeta 1-42 globulomer (UniProt P05067); test: MPA, globulomer Abeta 42 RLU over average Abeta 40 RLU, Pluronic F-127 wash
[3] = molecular target: PrPSc, prion aggregates of prion infected hamster (Syrian hamster) (UniProt P04273); test: cell-based or functional assay
PrPSc, prion aggregates of prion infected hamster (Syrian hamster), sequence (P04273 23-231 limits assumed): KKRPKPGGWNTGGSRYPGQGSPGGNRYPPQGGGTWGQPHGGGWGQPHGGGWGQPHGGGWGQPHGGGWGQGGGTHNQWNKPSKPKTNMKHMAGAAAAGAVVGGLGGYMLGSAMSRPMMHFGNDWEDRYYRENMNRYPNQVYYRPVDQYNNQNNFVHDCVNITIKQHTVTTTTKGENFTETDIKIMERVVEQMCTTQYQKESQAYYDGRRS

[4] = molecular target: Abeta 1-42 globulomer (UniProt P05067); test: MPA, CSF + 0.5 ng/mL globulomer, ZW3-08 wash
[5] = molecular target: Abeta 1-42 globulomer (UniProt P05067); test: MPA bead capture, CSF + 1 ng/mL globulomer, Abeta immunoassay
[6] = molecular target: Abeta 1-42 globulomer (UniProt P05067); test: MPA, CSF + 0.5 ng/mL globulomer, ASB-14 wash
[7] = molecular target: Abeta 1-42 globulomer (UniProt P05067)
[8] = molecular target: Abeta 1-42 monomer (UniProt P05067); test: MPA, unspiked CSF background, Brij 35 wash
[9] = molecular target: Abeta 1-42 globulomer (UniProt P05067); test: MPA, 0.5 over 0 ng/mL globulomer in CSF, ZW3-16 wash
[10] = molecular target: Abeta 1-42 monomer (UniProt P05067); test: MPA, unspiked CSF background, ASB-16 wash
[11] = molecular target: Abeta 1-42 globulomer (UniProt P05067); test: MPA, globulomer Abeta 42 RLU over average Abeta 40 RLU, Empigen wash
[12] = molecular target: Abeta (1-42) aggregates from Alzheimer's Disease Brain Homogenate (human) (UniProt P05067); test: MPA, serial dilutions of ADBH in CSF, LoD = 2x over background
[13] = molecular target: Abeta 1-42 globulomer (UniProt P05067); test: MPA, globulomer Abeta 42 RLU over average Abeta 40 RLU, ASB-14 wash
[14] = molecular target: Abeta 1-42 globulomer (UniProt P05067); test: MPA, CSF + 0.5 ng/mL globulomer, Brij 35 wash
[15] = molecular target: Abeta 1-42 globulomer (UniProt P05067); test: MPA, pulldown in TBSTT, no added detergent wash
[16] = molecular target: Abeta 1-42 globulomer (UniProt P05067); test: MPA, globulomer Abeta 42 RLU over average Abeta 40 RLU, ZW3-08 wash
[17] = molecular target: Abeta 1-42 globulomer (UniProt P05067); test: MPA, 0.5 over 0 ng/mL globulomer in CSF, ASB-C8phn wash
[18] = molecular target: Abeta 1-42 globulomer (UniProt P05067); test: MPA, CSF + 0.5 ng/mL globulomer, Pluronic F-127 wash
[19] = molecular target: Abeta 1-42 globulomer (UniProt P05067); test: MPA, globulomer Abeta 42 RLU over average Abeta 40 RLU, ASB-16 wash
[20] = molecular target: Abeta 1-42 globulomer (UniProt P05067); test: MPA, 0.5 over 0 ng/mL globulomer in CSF, ZW3-14 wash
[21] = molecular target: Abeta 1-42 globulomer (UniProt P05067); test: MPA, CSF + 0.5 ng/mL globulomer, ZW3-14 wash
[22] = molecular target: Abeta 1-42 globulomer (UniProt P05067); test: MPA, 0.5 over 0 ng/mL globulomer in CSF, Empigen wash
[23] = molecular target: ASPD (Abeta42 aggregate) (UniProt P05067); test: MPA, serial dilutions in CSF, LoD = 2x over background
[24] = molecular target: Abeta (1-42) aggregates from Alzheimer's Disease Brain Homogenate (human) (UniProt P05067); test: as above
[25] = molecular target: ADDL (Abeta42 aggregate) (UniProt P05067); test: as above
[26] = molecular target: Abeta 1-42 globulomer (UniProt P05067); test: as above
[27] = molecular target: Abeta42 fibrils (UniProt P05067); test: as above
[28] = molecular target: Abeta 1-42 globulomer (UniProt P05067); test: MPA, globulomer Abeta 42 RLU over average Abeta 40 RLU, ZW3-14 wash
[29] = molecular target: Abeta 1-42 globulomer (UniProt P05067); test: MPA, globulomer Abeta 42 RLU over average Abeta 40 RLU, ZW3-16 wash
[30] = molecular target: ASPD (Abeta42 aggregate) (UniProt P05067); test: MPA, serial dilutions in CSF, LoD = 2x over background; remark: listed apart in the source

PSR1 (peptoid, directly conjugated to Dynal M270 beads)
S/N Abeta 42 globulomer-spiked/unspiked [1]: 6.3
S/N Abeta 42 globulomer-spiked/Abeta 40 [2]: 0.9
Attack rate (Clinical TSE/total inoculated), Pool 2 [3]: 100%
Attack rate (Clinical TSE/total inoculated), Pool 3 (pre-symptomatic) [3]: 50%
Attack rate (Clinical TSE/total inoculated), Pool 4 [3]: 100%
Mean incubation period (days), Pool 1 [3]: 94 dpi
Mean incubation period (days), Pool 2 [3]: 74 dpi
Mean incubation period (days), Pool 4 [3]: 76 dpi
incubation period (days), Pool 3 (pre-symptomatic) [3]: 56 days and 85 days
Abeta 42 RLU, 0.5 ng/mL Average [4]: 669 RLU
average RLU (42) [5]: 970 RLU
Abeta 42 RLU, 0.5 ng/mL Average [6]: 779 RLU
LoD of globulomer, RLU (S/N = 2) [7]: 199 RLU
LoD of globulomer, pg/mL (Cal) [7]: 2.33 pg/mL
S/N at 25.3 pg/mL [7]: 10.3
Abeta 42 RLU, 0 ng/mL Average [8]: 117 RLU
S/N Abeta 42 globulomer-spiked/unspiked [9]: 10.9
Abeta 42 RLU, 0 ng/mL Average [10]: 95.7 RLU
S/N Abeta 42 globulomer-spiked/Abeta 40 [11]: 2.6
LoD (amol) [12]: < 0.2 amol
S/N Abeta 42 globulomer-spiked/Abeta 40 [13]: 2
Abeta 42 RLU, 0.5 ng/mL Average [14]: 741 RLU
LoD of globulomer, RLU (S/N = 2) [15]: 204 RLU
LoD of globulomer, pg/mL (Cal) [15]: 2.34 pg/mL
S/N at 25.3 pg/mL [15]: 13.7
S/N Abeta 42 globulomer-spiked/Abeta 40 [16]: 0.9
S/N Abeta 42 globulomer-spiked/unspiked [17]: 9.3
Abeta 42 RLU, 0.5 ng/mL Average [18]: 739 RLU
S/N Abeta 42 globulomer-spiked/Abeta 40 [19]: 2.8
S/N Abeta 42 globulomer-spiked/unspiked [20]: 7.7
Abeta 42 RLU, 0.5 ng/mL Average [21]: 842 RLU
S/N Abeta 42 globulomer-spiked/unspiked [22]: 8.7
LoD [23]: 200 pg/mL
LoD [24]: < 5 pg/mL
LoD [25]: 200 pg/mL
LoD [26]: 75 pg/mL
LoD [27]: 50 pg/mL
S/N Abeta 42 globulomer-spiked/Abeta 40 [28]: 2.2
S/N Abeta 42 globulomer-spiked/Abeta 40 [29]: 3.7
LoD [30]: 200 pg/mL
